Assay results published in US20220306765A1 (SUZHOU TRANSCENTA THERAPEUTICS, published 2022).
Residue numbers refer to the chain shown, from its start.

B1: 18B10-HbLa (antibody, human IgG1, kappa, V domains shown)
VH: QVQLVQSGAEVKKPGASVKVSCKASGYSFTGYNMNWVRQAPGQGLEWMGNIDPYYGGTSYNQKFKGRVTLTIDKSTSTVYMELSSLRSEDTAVYYCARMYHGNAFDYWGQGTTVTVSS
VL: DIVMTQSPDSLAVSLGERATINCKSSQSLLNSGNLKNYLTWYQQKPGQPPKLLIYWASTRKSGVPDRFSGSGSGTDFTLTISSLQAEDVAVYYCQNDYSYPLTFGGGTKVEIKR
notes: humanized 18B10, human IgG1 / kappa
B2: 18B10-HbLb (antibody, human IgG1, kappa, V domains shown)
VH: B1 VH
VL: B1 VL with I21M, S69T
notes: as for B1
B3: 18B10-HaLb (antibody, human IgG1, kappa, V domains shown)
VH: B1 VH with S28T, L70M
VL: B1 VL with I21M, S69T
notes: as for B1
B4: 18B10-HcLa (antibody, human IgG1, kappa, V domains shown)
VH: B1 VH with R38K, M48I
VL: B1 VL
notes: as for B1
B5: 18B10-HcLb (antibody, human IgG1, kappa, V domains shown)
VH: B1 VH with R38K, M48I
VL: B1 VL with I21M, S69T
notes: as for B1
B6: 7C12 (antibody, V domains shown)
VH: EFQLQQSGPELEKPGASVRISCKTSGYSFTGYNMNWVKQSNGESLEWIGNIDPYYGATRYNQKFKGKATLTVDKSSSTAYMQLKSLTSEDSAVYYCARSYYGNAFDYWGQGTTLTVSS
VL: DIVMTQSPSSLTVTAGEKVTMSCKSSQSLLNSGNQKNYLTWYQQKPGQPPKLLIYWASTRESGVPDRFTGSGSGTDFTLTISSVQAEDLAVYYCQNDYSFPFTFGSGTKLEIK
notes: mouse hybridoma antibody; also called hybridoma antibody 7C12
B7: 11F12 (antibody, V domains shown)
VH: B6 VH with N50Y, A57G
VL: B6 VL with F100Y
notes: mouse hybridoma antibody; also called hybridoma antibody 11F12
B8: 7C12-C (antibody, human IgG1, V domains shown)
VH: B6 VH
VL: B6 VL
notes: also called chimeric 7C12
B9: 11F12-C (antibody, human IgG1, V domains shown)
VH: B6 VH with N50Y, A57G
VL: B6 VL with F100Y
notes: also called chimeric 11F12
B10: 12E9-C (antibody, human IgG1, V domains shown)
VH: B6 VH with A57G
VL: B6 VL with S28N, S32N, T78I, S106A, I112L
notes: also called chimeric 12E9
B11: 26G6-C (antibody, human IgG1, V domains shown)
VH: B6 VH with R19K, E43Q, N50H, G56V, A57T, R59T, K65R, Y100F
VL: B6 VL with L30F
notes: also called chimeric 26G6
B12: 59A9 (antibody, V domains shown)
VH: QITQKESGPGILQPSQTLSLTCSLSGFSLSTYFIGVGWIRQPSGKGLEWLAHIWWNDNKYYNTALKSRLTISKDTSNNQVFLKIASVDTADTATYYCARMGSGAWFTYWGQGTLVTVSA
VL: B6 VL with S99Y, F100Y, F102L
notes: mouse hybridoma antibody; also called hybridoma antibody 59A9
B13: 12E9 (antibody, V domains shown)
VH: B6 VH with A57G
VL: B6 VL with S28N, S32N, T78I, S106A, I112L
notes: mouse hybridoma antibody; also called hybridoma antibody 12E9
B14: 26G6 (antibody, V domains shown)
VH: B6 VH with R19K, E43Q, N50H, G56V, A57T, R59T, K65R, Y100F
VL: B6 VL with L30F
notes: mouse hybridoma antibody; also called hybridoma antibody 26G6
B15: 18B10 (antibody, V domains shown)
VH: B6 VH with A57G, R59S, S99M, Y101H
VL: B6 VL with Q35L, E61K, I81L, F100Y, F102L, S106A, I112L
notes: mouse hybridoma antibody; also called hybridoma antibody 18B10

The binders below were run against T1, human CLDN18.2 (human) (assay: flow cytometry on HEK293-CLDN18.2 cells; unit taken from the concentration axis).
T1 construct: also called hCLDN18.2; Claudin-18 splice variant 2
Protocol: (§1) Log-phase HEK293-CLDN18.2 and NUGC4 cells were re-suspended in PBS. After 3× cell wash by using FACS washing buffer (PBS+2% FBS), 100 μl/well diluted hybridoma Abs with a range from 400 nM to 0.002 nM were added into each well for incubation at 4° C. for 30 min. Again, cells were washed 3 times by using FACS washing buffer and then incubated with 100 μl/well goat anti-mIgG-FITC (1:400 dilution) at 4° C. for another 30 min. After a final 3× wash using FACS washing buffer, cells were analyzed by flow Cytometry.

EC50	Binder
1.31 µg/mL	B1
1.2 µg/mL	B2
1.27 µg/mL	B3
1.39 µg/mL	B4
1.22 µg/mL	B5

Each binder was assayed against T1, human CLDN18.2 (assay: flow cytometry on HEK293-CLDN18.2 cells, goat anti-mIgG-FITC; unit taken from the concentration axis).
Protocol: as §1

EC50	Binder
0.417 µg/mL	B6
0.605 µg/mL	B7

What follows are binders tested against T1, human CLDN18.2 (assay: flow cytometry on NUGC4 cells, goat anti-mIgG-FITC).
Protocol: as §1

EC50 (read off the curve)	Binder
~0.5 µg/mL	B6
~1 µg/mL	B7

The binders below were run against T1, human CLDN18.2 (assay: FACS, HEK293-CLDN18.2 cells).

EC50	Binder
0.63 µg/mL	B8
0.61 µg/mL	B9
0.65 µg/mL	B10
1.1 µg/mL	B11

These binders were tested against T2, human CLDN18.1 (human, UniProt P56856 1-261) (assay: FACS, hybridoma supernatant, HEK293-CLDN18.1 cells).
T2 construct: on HEK293-CLDN18.1 cells; also called Claudin-18 splice variant 1; NP_057453.1
T2 sequence (P56856 whole entry, canonical isoform): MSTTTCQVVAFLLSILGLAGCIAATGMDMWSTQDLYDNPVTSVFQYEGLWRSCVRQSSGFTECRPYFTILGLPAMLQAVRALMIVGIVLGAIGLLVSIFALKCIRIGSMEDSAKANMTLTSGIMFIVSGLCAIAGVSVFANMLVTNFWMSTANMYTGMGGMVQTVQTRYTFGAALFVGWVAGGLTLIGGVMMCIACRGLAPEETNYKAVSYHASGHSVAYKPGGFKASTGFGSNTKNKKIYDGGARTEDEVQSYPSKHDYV
Protocol: Log-phase CLDN18.1 expressing HEK293-CLDN18.1 cells were resuspended in PBS at a density of 10\hat{ }5/100 μl per well. After 3× cell wash by using FACS washing buffer (PBS+2% FBS), 100 μl/well hybridoma supernatant was added into each well for incubation at 4° C. for 30 min. Again, cells were washed 3 times by using FACS washing buffer and then incubated with 100 μl/well goat anti-mIgG-FITC (1:400 dilution) at 4° C. for another 30 min. After a final 3× wash using FACS washing buffer, cells were analyzed by flow Cytometry.

binding result	Binder
no binding	B12
no binding	B6
no binding	B13
no binding	B7
no binding	B14
no binding	B15

The binders below were run against T2, human CLDN18.1 (assay: FACS, HEK293-CLDN18.1 cells).

binding result	Binder
no binding	B8
no binding	B9
no binding	B10
no binding	B11

These binders were tested against T1, human CLDN18.2 (assay: FACS, NUGC4 cells).

EC50	Binder
13 µg/mL	B8
10 µg/mL	B9
9.37 µg/mL	B10
67.1 µg/mL	B11

These binders were tested against human CLDN18.2-mRFP N37D (human) (assay: FACS, transfected HEK293, 10 µg/ml antibody;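 also: antibody binding read by flow cytometry with a FITC-labelled anti-human IgG secondary, gated on RFP-positive cells, each mutant signal expressed against wild-type CLDN18.2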).
Sequence of human CLDN18.2-mRFP N37D (human) (chain, as listed by the source N37D N37D limits assumed): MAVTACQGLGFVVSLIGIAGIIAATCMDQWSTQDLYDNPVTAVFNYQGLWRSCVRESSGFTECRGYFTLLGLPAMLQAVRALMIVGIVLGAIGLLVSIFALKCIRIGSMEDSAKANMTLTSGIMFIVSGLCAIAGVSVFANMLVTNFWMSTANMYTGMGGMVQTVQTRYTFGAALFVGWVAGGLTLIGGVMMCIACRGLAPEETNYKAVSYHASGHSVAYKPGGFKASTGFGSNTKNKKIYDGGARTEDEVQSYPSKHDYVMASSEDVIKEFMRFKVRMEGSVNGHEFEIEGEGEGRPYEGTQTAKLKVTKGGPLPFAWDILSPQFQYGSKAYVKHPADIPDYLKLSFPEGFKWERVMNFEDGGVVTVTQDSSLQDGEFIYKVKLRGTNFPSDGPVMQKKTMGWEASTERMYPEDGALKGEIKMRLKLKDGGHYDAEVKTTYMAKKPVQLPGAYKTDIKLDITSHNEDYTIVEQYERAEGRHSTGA
Protocol: (§2) The transfected HEK293-CLDN18.2 or HEK293-CLDN18.1 cell were resuspended in PBS with 2% BSA at density of 10\hat{ }5/well, 100 μl/well. […] Next, cells were washed 3 times by FACS washing buffer and incubated with 100 μl/well goat anti-hIgG (H+L)-FITC (1:200 dilution) at 4° C. for another 30 min. Finally, cells were washed 3 times by FACS washing buffer and analyzed by Flow Cytometry. To analyze binding to CLDN18.2 transfected cells, the RFP positive cells were used for control gating.

binding percentage vs wild-type CLDN18.2	Binder
80.2%	B8
102%	B9
103%	B10
118%	B11

Each binder was assayed against human CLDN18.2-mRFP L69I (human) (assay: FACS, transfected HEK293, 10 µg/ml antibody;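 also: antibody binding read by flow cytometry with a FITC-labelled anti-human IgG secondary, gated on RFP-positive cells, each mutant signal expressed against wild-type CLDN18.2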).
Sequence of human CLDN18.2-mRFP L69I (human) (chain, as listed by the source L69I L69I limits assumed): as the sequence (chain, as listed by the source N37D N37D limits assumed) above, with D37N, L69I counted along it
Protocol: as §2

binding percentage vs wild-type CLDN18.2	Binder
90.4%	B8
74.3%	B9
58.1%	B10
79.7%	B11

The binders below were run against human CLDN18.2-mRFP Q29M (human) (assay: FACS, transfected HEK293, 10 µg/ml antibody;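 also: antibody binding read by flow cytometry with a FITC-labelled anti-human IgG secondary, gated on RFP-positive cells, each mutant signal expressed against wild-type CLDN18.2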).
Sequence of human CLDN18.2-mRFP Q29M (human) (chain, as listed by the source Q29M Q29M limits assumed): as the sequence (chain, as listed by the source N37D N37D limits assumed) above, with Q29M, D37N counted along it
Protocol: as §2

binding percentage vs wild-type CLDN18.2	Binder
83.5%	B8
108%	B9
106%	B10
107%	B11

What follows are binders tested against human CLDN18.2-mRFP N45Q (human) (assay: FACS, transfected HEK293, 10 µg/ml antibody;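 also: antibody binding read by flow cytometry with a FITC-labelled anti-human IgG secondary, gated on RFP-positive cells, each mutant signal expressed against wild-type CLDN18.2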).
Sequence of human CLDN18.2-mRFP N45Q (human) (chain, as listed by the source N45Q N45Q limits assumed): as the sequence (chain, as listed by the source N37D N37D limits assumed) above, with D37N, N45Q counted along it
Protocol: as §2

binding percentage vs wild-type CLDN18.2	Binder
52.1%	B8
57.4%	B9
50.8%	B10
88.7%	B11

These binders were tested against human CLDN18.2-mRFP A42S (human) (assay: FACS, transfected HEK293, 10 µg/ml antibody).
Sequence of human CLDN18.2-mRFP A42S (human) (chain, as listed by the source A42S A42S limits assumed): as the sequence (chain, as listed by the source N37D N37D limits assumed) above, with D37N, A42S counted along it
Protocol: as §2

binding percentage vs wild-type CLDN18.2	Binder
38.7%	B8
56.9%	B9
55.1%	B10
82.2%	B11

These binders were tested against T3, human CLDN18.2-mRFP1, wild-type (human) (assay: FACS, transfected HEK293, 10 µg/ml antibody).
T3 construct: human CLDN18.2 (amino acid 1-261) fused to mRFP1 (amino acid 1-225), transiently expressed in HEK293 cells; also called wild-type human CLDN18.2-mRFP
Protocol: as §2

binding percentage vs wild-type CLDN18.2	Binder
100%	B8
100%	B9
100%	B10
100%	B11

What follows are binders tested against human CLDN18.2-mRFP G65P (human) (assay: FACS, transfected HEK293, 10 µg/ml antibody).
Sequence of human CLDN18.2-mRFP G65P (human) (chain, as listed by the source G65P G65P limits assumed): as the sequence (chain, as listed by the source N37D N37D limits assumed) above, with D37N, G65P counted along it
Protocol: as §2

binding percentage vs wild-type CLDN18.2	Binder
79.4%	B8
92.7%	B9
96.7%	B10
119%	B11

These binders were tested against human CLDN18.2-mRFP E56Q (human) (assay: FACS, transfected HEK293, 10 µg/ml antibody).
Sequence of human CLDN18.2-mRFP E56Q (human) (chain, as listed by the source E56Q E56Q limits assumed): as the sequence (chain, as listed by the source N37D N37D limits assumed) above, with D37N, E56Q counted along it
Protocol: as §2

binding percentage vs wild-type CLDN18.2	Binder
0.48%	B8
0.27%	B9
0.35%	B10
0.34%	B11

These binders were tested against human CLDN18.2-mRFP Q47E (human) (assay: FACS, transfected HEK293, 10 µg/ml antibody).
Sequence of human CLDN18.2-mRFP Q47E (human) (chain, as listed by the source Q47E Q47E limits assumed): as the sequence (chain, as listed by the source N37D N37D limits assumed) above, with D37N, Q47E counted along it
Protocol: as §2

binding percentage vs wild-type CLDN18.2	Binder
74.7%	B8
86.1%	B9
89.1%	B10
116%	B11

Target: T1, human CLDN18.2
Test: flow cytometry on NUGC4 cells, goat anti-mIgG-FITC
Remark: another data set of the same source
Protocol: as §1

EC50 (read off the curve)	Binder
~2 µg/mL	B13
~2 µg/mL	B14

Target: T1, human CLDN18.2
Test: FACS, HEK293-CLDN18.2 cells
Remark: another data set of the same source
Protocol: as §1

EC50	Binder
0.51 µg/mL	B12
1.08 µg/mL	B6
0.52 µg/mL	B13
0.82 µg/mL	B7
0.76 µg/mL	B14
0.81 µg/mL	B15
